Data: publication PMC7039684, “Control of cell death/survival balance by the MET dependence receptor” (eLife, 2020)
One block for each molecule: values may come before it.

Tests used:
Experiment in all cases: FRET or BRET; FLIM-FRET by TCSPC in live co-transfected HEK293T cells, 37°C, L-15 medium; lifetime of the mT2 donor against donor alone; SYFP2 or EYFP fusion as acceptor
BAK-mTurquoise2 = BAK-mTurquoise2 (UniProt Q16611)
BAX-SYFP2 = target: T1, BAX-SYFP2 (UniProt Q07812 1-192); settings: partners not purified
T1 construct: BAX, pro-apoptotic BCL2 family protein; amplified by PCR from Flag-tagged BAX; Cloned with EcoRI and XhoI into the SYFP2 plasmid; also called SYFP2-tagged BAX; source: HEK293T, transfected, in live cells
T1 sequence (Q07812 whole entry): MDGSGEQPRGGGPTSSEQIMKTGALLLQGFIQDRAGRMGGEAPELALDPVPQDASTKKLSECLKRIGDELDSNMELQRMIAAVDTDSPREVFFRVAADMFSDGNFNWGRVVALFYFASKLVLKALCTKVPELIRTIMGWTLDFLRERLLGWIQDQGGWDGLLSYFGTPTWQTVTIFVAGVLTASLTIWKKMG

BAK-SYFP2 = target: T2, BAK-SYFP2 (UniProt Q16611 1-211); settings: partners not purified
T2 construct: BAK, pro-apoptotic BCL2 family protein; amplified by PCR from Flag-tagged BAK; Cloned with EcoRI and XhoI into the SYFP2 plasmid; also called SYFP2-BAK; source: HEK293T or IHH cells, transfected, in live cells
T2 sequence (looked up): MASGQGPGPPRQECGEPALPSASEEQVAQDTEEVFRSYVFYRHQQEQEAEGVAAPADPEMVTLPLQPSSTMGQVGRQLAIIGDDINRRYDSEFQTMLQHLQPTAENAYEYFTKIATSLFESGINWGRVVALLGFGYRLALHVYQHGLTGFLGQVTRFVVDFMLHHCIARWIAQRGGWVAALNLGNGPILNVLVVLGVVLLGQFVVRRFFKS

BAX-mTurquoise2 = target: T3, BAX-mTurquoise2 (UniProt Q07812 1-192); settings: partners not purified
T3 construct: BAX, pro-apoptotic BCL2 family protein; amplified by PCR from Flag-tagged BAX; Cloned with EcoRI and XhoI into the mTurquoise2 plasmid; also called BAX-mT2; mT2-fused BAX; source: HEK293T, transfected, in live cells
T3 sequence (Q07812 whole entry, the tested form may be a part): as the sequence (Q07812 whole entry) above

mean FRET efficiency (BAK-mTurquoise2): < 0.1%
Molecule: free SYFP2 (Super Yellow Fluorescent Protein 2)

mean FRET efficiency (BAX-SYFP2): 2.5%
mean FRET efficiency (BAK-SYFP2): 4%
B1: p40MET-mTurquoise2 (domain or fragment, mouse, UniProt P16056 1001-1374, looked up)
chain: YRATFPEDQFPNSSQNGACRQVQYPLTDLSPILTSGDSDISSPLLQNTVHIDLSALNPELVQAVQHVVIGPSSLIVHFNEVIGRGHFGCVYHGTLLDNDGKKIHCAVKSLNRITDIEEVSQFLTEGIIMKDFSHPNVLSLLGICLRSEGSPLVVLPYMKHGDLRNFIRNETHNPTVKDLIGFGLQVAKGMKYLASKKFVHRDLAARNCMLDEKFTVKVADFGLARDMYDKEYYSVHNKTGAKLPVKWMALESLQTQKFTTKSDVWSFGVLLWELMTRGAPPYPDVNTFDITIYLLQGRRLLQPEYCPDALYEVMLKCWHPKAEMRPSFSELVSRISSIFSTFIGEHYVHVNATYVNVKCVAPYPSLLPSQDNID
notes: limits worked out from the stated caspase sites; also called p40MET-mT2; mT2-p40MET; source: HEK293T or IHH cells, transfected, in live cells

mean FRET efficiency (BAX-mTurquoise2): 4.3%
B2: p40MET-SYFP2 (domain or fragment, mouse, UniProt P16056 1001-1374, looked up)
chain: YRATFPEDQFPNSSQNGACRQVQYPLTDLSPILTSGDSDISSPLLQNTVHIDLSALNPELVQAVQHVVIGPSSLIVHFNEVIGRGHFGCVYHGTLLDNDGKKIHCAVKSLNRITDIEEVSQFLTEGIIMKDFSHPNVLSLLGICLRSEGSPLVVLPYMKHGDLRNFIRNETHNPTVKDLIGFGLQVAKGMKYLASKKFVHRDLAARNCMLDEKFTVKVADFGLARDMYDKEYYSVHNKTGAKLPVKWMALESLQTQKFTTKSDVWSFGVLLWELMTRGAPPYPDVNTFDITIYLLQGRRLLQPEYCPDALYEVMLKCWHPKAEMRPSFSELVSRISSIFSTFIGEHYVHVNATYVNVKCVAPYPSLLPSQDNID
notes: limits worked out from the stated caspase sites; also called SYFP2-p40MET; source: HEK293T or IHH cells, transfected, in live cells
